In patent US20140348747A1 one finds Kd data, which are given here for 1 molecule.

Where “and” joins values, the source holds several entries; their conditions need not be identical. Equal values may be shown once. Read-outs that look alike come from different tables or passages of the source.

Targets include VA; 5P+VT; 5P+V; VT; AA; 5P+VTG.
Holding throughout (details): modification not given
The next experiment has as its target T1, A51T.
T1 chain: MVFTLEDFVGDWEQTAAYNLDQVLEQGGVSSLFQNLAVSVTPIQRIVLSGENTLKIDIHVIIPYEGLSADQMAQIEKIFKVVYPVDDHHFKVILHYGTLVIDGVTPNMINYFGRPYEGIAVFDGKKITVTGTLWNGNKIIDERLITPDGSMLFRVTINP

Experiment [1] has as its target T2, wild-type non-luminescent polypeptide (WT fragment of residues 1-156 of NanoLuc).
T2 chain: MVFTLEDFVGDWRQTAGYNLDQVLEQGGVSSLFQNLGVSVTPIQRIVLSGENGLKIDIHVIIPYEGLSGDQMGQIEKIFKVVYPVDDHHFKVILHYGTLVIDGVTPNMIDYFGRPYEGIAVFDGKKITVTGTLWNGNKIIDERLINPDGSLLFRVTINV

For experiment [2], the target named is T2, wild-type non-luminescent polypeptide ….
For experiment [3] the target is unchanged.
The target of the next experiment is T3, F31L+H93P.
T3 chain: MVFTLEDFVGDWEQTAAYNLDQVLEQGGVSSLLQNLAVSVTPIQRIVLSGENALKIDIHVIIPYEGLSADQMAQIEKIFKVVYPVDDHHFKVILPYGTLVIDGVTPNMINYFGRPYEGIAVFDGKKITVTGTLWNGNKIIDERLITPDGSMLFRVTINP

For a further experiment, the target named is T4, D2.
T4 chain: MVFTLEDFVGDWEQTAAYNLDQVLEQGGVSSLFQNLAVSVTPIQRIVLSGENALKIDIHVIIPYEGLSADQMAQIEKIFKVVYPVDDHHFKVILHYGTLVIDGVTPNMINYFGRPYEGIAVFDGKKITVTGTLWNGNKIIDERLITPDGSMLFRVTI

For another experiment, the target named is T5, F31L.
T5 chain: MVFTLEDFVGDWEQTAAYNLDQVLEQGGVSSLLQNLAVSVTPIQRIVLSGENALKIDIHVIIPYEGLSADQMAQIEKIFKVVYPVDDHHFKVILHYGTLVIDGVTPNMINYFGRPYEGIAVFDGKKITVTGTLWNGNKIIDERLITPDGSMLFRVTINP

A further experiment concerns the target T6, L46R.
T6 chain: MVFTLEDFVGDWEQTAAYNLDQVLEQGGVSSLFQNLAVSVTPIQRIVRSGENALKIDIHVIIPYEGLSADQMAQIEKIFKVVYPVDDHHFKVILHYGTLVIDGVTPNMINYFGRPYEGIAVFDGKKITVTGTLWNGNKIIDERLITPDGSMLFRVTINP

A further experiment addresses T7, H93P.
T7 chain: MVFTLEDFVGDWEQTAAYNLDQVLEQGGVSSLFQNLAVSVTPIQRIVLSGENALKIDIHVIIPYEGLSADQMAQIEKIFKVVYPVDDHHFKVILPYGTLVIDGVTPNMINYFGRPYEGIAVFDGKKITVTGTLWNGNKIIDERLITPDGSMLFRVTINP

For the next experiment, the target named is T8, P157S.
T8 chain: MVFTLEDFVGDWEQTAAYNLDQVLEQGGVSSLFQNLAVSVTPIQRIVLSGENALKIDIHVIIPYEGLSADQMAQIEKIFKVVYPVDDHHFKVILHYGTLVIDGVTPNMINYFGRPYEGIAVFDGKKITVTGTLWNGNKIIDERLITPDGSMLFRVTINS

Another experiment addresses T9, NLpoly 11S (12-A51T).
T9 chain: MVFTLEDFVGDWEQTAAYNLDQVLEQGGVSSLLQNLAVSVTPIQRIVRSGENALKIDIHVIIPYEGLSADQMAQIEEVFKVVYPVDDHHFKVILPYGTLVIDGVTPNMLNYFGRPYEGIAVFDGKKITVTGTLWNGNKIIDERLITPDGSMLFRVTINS

The target in another experiment is T10, VTGW.
T10 chain: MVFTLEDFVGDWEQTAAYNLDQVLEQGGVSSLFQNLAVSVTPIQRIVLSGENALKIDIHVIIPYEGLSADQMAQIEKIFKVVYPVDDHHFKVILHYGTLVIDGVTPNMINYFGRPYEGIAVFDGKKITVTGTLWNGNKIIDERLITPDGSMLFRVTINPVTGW

For the next experiment, the target named is T11, VTGWR.
T11 chain: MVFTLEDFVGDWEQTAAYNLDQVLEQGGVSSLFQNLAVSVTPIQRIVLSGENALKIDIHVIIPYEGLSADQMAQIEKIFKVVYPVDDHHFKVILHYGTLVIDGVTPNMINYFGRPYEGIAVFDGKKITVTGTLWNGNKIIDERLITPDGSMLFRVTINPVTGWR

In another experiment the target is T12, P157H.
T12 chain: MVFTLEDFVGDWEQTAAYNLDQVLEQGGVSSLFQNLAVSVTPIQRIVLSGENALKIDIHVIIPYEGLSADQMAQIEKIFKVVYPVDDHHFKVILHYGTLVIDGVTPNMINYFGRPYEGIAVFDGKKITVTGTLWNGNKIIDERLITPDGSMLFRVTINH

In a further experiment the target is T13, V58A.
T13 chain: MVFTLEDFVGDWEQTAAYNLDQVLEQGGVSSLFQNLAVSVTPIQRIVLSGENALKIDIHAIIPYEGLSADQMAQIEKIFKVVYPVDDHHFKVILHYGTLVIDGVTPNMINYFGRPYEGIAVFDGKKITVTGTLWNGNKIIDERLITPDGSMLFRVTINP

For a further experiment, the target named is T14, H57R.
T14 chain: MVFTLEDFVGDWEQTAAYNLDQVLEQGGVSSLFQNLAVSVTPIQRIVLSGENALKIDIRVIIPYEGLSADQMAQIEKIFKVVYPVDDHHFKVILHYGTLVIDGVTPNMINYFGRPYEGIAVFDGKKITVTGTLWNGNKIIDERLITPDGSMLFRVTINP

B1: NLpep78 (peptide)
chain: NVSGWRLFKKISN
As usually defined, the Kd is the concentration at which binding is half-saturated. Read a high Kd as weaker binding. On to B1, for which the Kd in the experiment with A51T is 0.0188 µM; in experiment [1], 1750 µM; in [2] it was 0.341 µM and 1.05 µM; in [3], 0.784 µM; with F31L+H93P, 0.0172 µM; with D2, 0.0102 µM. The Kd with F31L is 0.0148 µM; in the experiment with VA, 0.0146 µM; with L46R it was 0.0184 µM; in the experiment with H93P, 0.024 µM; with 5P+VT, 0.0254 µM; with 5P+V, 0.0249 µM. The Kd turned out to be 0.0152 µM with P157S; 0.0131 µM with VT; 0.0113 µM with AA; 26 µM in the experiment with NLpoly 11S (12-A51T); 0.013 µM in the experiment with VTGW; 0.0133 µM in the experiment with VTGWR. Besides, the Kd in the experiment with 5P+VTG came out at 0.026 µM; with P157H, 0.0179 µM; in the experiment with V58A it was 0.0152 µM; with H57R it was 0.0141 µM.
